# Columns and labels:
# [1] = system: bsSecA783 F652-GS(10)-PhoAss Cys22-IAEDANS; assay: Signal peptide competition-binding assay by FRET; set-up: species or system B. subtilis; conditions: 5-fold molar excess of unlabeled SP22; data not shown
# [2] = system: bsSecA783 F652-GS(5)-KRRLamBss Cys29-IAEDANS; assay: Signal peptide competition-binding assay by FRET; set-up: species or system B. subtilis; conditions: 5-fold molar excess of unlabeled SP22; data not shown
# [3] = target: E. coli alkaline phosphatase signal peptide SP22, IANBD-labeled (E. coli); assay: fluorescence polarisation
# IANBD-labeled SP22 = assay: SecA-signal peptide binding affinity by fluorescence anisotropy; set-up: species or system E. coli
Molecule,Kd [3],also measured
MKQSTIALALLPLLFTPVTKAC-NH2 [SP22],,reduction of energy transfer efficiency [1]: approximately 50%; reduction of energy transfer efficiency [2]: approximately 50%
bsSecA783-KRRLamBss (from UniProt P28366 1-783),13 µM,
bsSecA783-PhoAss (from UniProt P28366 1-783),4.5 µM,
bsSecA841 (from UniProt P28366 1-841) (enzyme),1.9 µM,
bsSecA841-KRRLamBss (from UniProt P28366 1-841),14 µM,
bsSecA841-PhoAss (from UniProt P28366 1-841),4.6 µM,
"bsSecA783: carboxy-terminally truncated B. subtilis SecA lacking the CTL domain (protein, UniProt P28366 1-783, looked up, fragment) MLGILNKMFDPTKRTLNRYEKIANDIDAIRGDYENLSDDALKHKTIEFKERLEKGATTDDLLVEAFAVVREASRRVTGMFPFKVQLMGGVALHDGNIAEMKTGEGKTLTSTLPVYLNALTGKGVHVVTVNEYLASRDAEQMGKIFEFLGLTVGLNLNSMSKDEKREAYAADITYSTNNELGFDYLRDNMVLYKEQMVQRPLHFAVIDEVDSILIDEARTPLIISGQAAKSTKLYVQANAFVRTLKAEKDYTYDIKTKAVQLTEEGMTKAEKAFGIDNLFDVKHVALNHHINQALKAHVAMQKDVDYVVEDGQVVIVDSFTGRLMKGRRYSEGLHQAIEAKEGLEIQNESMTLATITFQNYFRMYEKLAGMTGTAKTEEEEFRNIYNMQVVTIPTNRPVVRDDRPDLIYRTMEGKFKAVAEDVAQRYMTGQPVLVGTVAVETSELISKLLKNKGIPHQVLNAKNHEREAQIIEEAGQKGAVTIATNMAGRGTDIKLGEGVKELGGLAVVGTERHESRRIDNQLRGRSGRQGDPGITQFYLSMEDELMRRFGAERTMAMLDRFGMDDSTPIQSKMVSRAVESSQKRVEGNNFDSRKQLLQYDDVLRQQREVIYKQRFEVIDSENLREIVENMIKSSLERAIAAYTPREELPEEWKLDGLVDLINTTYLDEGALEKSDIFGKEPDEMLELIMDRIITKYNEKEEQFGKEQMREFEKVIVLRAVDSKWMDHIDAMDQLRQGIHLRAYAQTNPLREYQMEGFAMFEHMIESIEDEVAKFVMKAEIENN",,higher affinity for SP22 compared to full-length bsSecA841 (IANBD-labeled SP22): approximately 4 fold
